Measurements from article PMC7229144, “Tetracycline-inactivating enzymes from environmental, human commensal, and pathogenic bacteria cause broad-spectrum tetracycline resistance” (Communications Biology, 2020).

Tests used:
[1] = system: CN(C)c1cc(NC(=O)CNC(C)(C)C)c(O)c2c1C[C@H]1C[C@H]3[C@H](N(C)C)C(=O)C(C(N)=O)=C(O)[C@@]3(O)C(=O)C1=C2O; assay: purified protein; conditions: 0-40 µM substrate, 504 µM NADPH, 5.04 mM MgCl2, 0.4 µM enzyme, 100 mM TAPS pH 8.5, room temperature
[2] = system: CN(C)c1cc(CNCC(C)(C)C)c(O)c2c1C[C@H]1C[C@H]3[C@H](N(C)C)C(=O)C(C(N)=O)=C(O)[C@@]3(O)C(=O)C1=C2O; assay: purified protein; conditions: 0-40 µM substrate, 504 µM NADPH, 5.04 mM MgCl2, 0.4 µM enzyme, 100 mM TAPS pH 8.5, room temperature
[3] = system: CN(C)[C@@H]1C(=O)C(C(N)=O)=C(O)[C@@]2(O)C(=O)C3=C(O)c4c(O)c(NC(=O)CN5CCCC5)cc(F)c4C[C@H]3C[C@@H]12; assay: purified protein; conditions: 0-40 µM substrate, 504 µM NADPH, 5.04 mM MgCl2, 0.4 µM enzyme, 100 mM TAPS pH 8.5, room temperature
Tet(X7) [4] = biological target: T1, Tet(X7) (human gut metagenome, UniProt Z9HWK3IZF4); assay type: binding; conditions: FAD in IN-conformation
Tet(X7) [5] = biological target: T1, Tet(X7); assay: absorbance, initial velocity of tigecycline degradation; assay type: biochemical; conditions: read-out: IC50 (apparent)

T1 sequence (Z9HWK3IZF4 21-399 limits assumed): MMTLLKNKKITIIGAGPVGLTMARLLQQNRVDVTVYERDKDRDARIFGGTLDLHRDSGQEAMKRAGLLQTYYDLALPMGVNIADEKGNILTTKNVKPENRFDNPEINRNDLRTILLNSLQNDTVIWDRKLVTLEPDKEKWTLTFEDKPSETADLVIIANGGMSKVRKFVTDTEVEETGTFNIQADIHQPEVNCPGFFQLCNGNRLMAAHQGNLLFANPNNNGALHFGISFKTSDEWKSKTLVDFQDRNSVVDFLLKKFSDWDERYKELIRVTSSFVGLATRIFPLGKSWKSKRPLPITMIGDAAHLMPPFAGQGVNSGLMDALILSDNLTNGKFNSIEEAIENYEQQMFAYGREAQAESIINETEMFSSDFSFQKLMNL

With Tet(X7) (uncultured bacterium) the Km [1] was 4 ± 0.4 µM, the kcat [1] was 0.005 ± 0.00017 s⁻¹ and the Km [2] was 4 ± 0.4 µM. For the same compound, the kcat [2] was 0.0033 ± 0.0001 s⁻¹ and the Km [3] was 6 ± 1 µM.

With Cc1cc2nc3c(=O)[nH]c(=O)nc-3n(C[C@H](O)[C@H](O)[C@H](O)COP(=O)(O)OP(=O)(O)OC[C@H]3O[C@@H](n4cnc5c(N)ncnc54)[C@H](O)[C@@H]3O)c2cc1C [FAD] the “X-ray crystal structure, 2.55 Å” value (Tet(X7) [4]) was “The FAD in Tet(X7) retains an IN-conformation”.

Compound Cc1c2c(c(O)c3c(O)cccc13)C(=O)[C@]1(O)C(=O)C(C(N)=O)=C(O)[C@@H](N(C)C)[C@@H]1C2 [anhydrotetracycline] has an IC50 (Tet(X7) [5]) of 1060 ± 108 nM.

CN(C)[C@@H]1C(=O)C(C(N)=O)=C(O)[C@@]2(O)C(=O)c3c(cc4c(Cl)ccc(O)c4c3O)C[C@@H]12 [anhydrodemeclocycline] showed an IC50 (Tet(X7) [5]) of 260 ± 40 nM.
